Common to all, as to conditions: remark: other sources report otherwise
The target of experiment [1] is alpha-synuclein fibrils (Homo sapiens (Human)), P37840. The experiment can be described thus: SPR, mAb captured; alpha-synuclein fibrils. (In general: In SPR one partner is held on a chip, and binding of the other changes the refractive index at the surface.)
The target in experiment [2] is human full-length alpha-synuclein (human), P37840. The experiment can be described thus: SPR, mAb captured; alpha-synuclein monomers.
For experiment [3] the target is unchanged. The experiment can be described thus: SPR, mAb captured, steady-state fit.
Experiment [4] shares this target. The experiment can be described thus: SPR, 100 nM monomer, relative to chimeric.
Experiment [5] has as its target alpha-synuclein fibrils (Homo sapiens (Human)), P37840. The experiment can be described thus: SPR, 450 nM aggregates, relative to chimeric.

B1: ACI-7079-2503C6-Ab1 (antibody, V domains shown)
VH: DVQLQESGPGLVKPSQSLSLTCSVTGYSITSGYYWNWIRLFPGNKLEWLGYINYDGSNNFNPSLKNRISITRDTSKNQFFLKLNSVTSEDTATYFCLRGDWDWGQGTLVTVSA
VL: not shown
As usually defined, the koff is the rate constant with which the complex falls apart. High values mean fast dissociation, low ones slow dissociation. The kon is the rate constant with which the complex forms. High values mean faster complex formation, low ones slower complex formation. For the molecule B1, in experiment [1], the dissociation rate constant (koff) was under 1e-05 s⁻¹ and the kon worked out at 9450 M⁻¹ s⁻¹.

B2: ACI-7067-1113D10-Ab1 (antibody, V domains shown)
VH: EVQLVESGGGLVQPKGSLKLSCAASGFTFNTYALHWVRQAPGKGLEWVARIRSKSSNYATYYADSVKDRFTISRDDSQSMLYLQMNNLKTEDTGMYYCVRGGVSPFDYWGQGTTLTVSS
VL: QIVLTQSPAIMSASPGEKVTMTCSASSSVSYMHWYQQKSGTSPKRWIYDTSKLASGVPARFSGSGSGTSYSLTISSMEAEDSATYYCQQWSNNPPTFGGGTKLEIK
Consider B2, for which the dissociation rate constant (koff) in experiment [2] worked out at 0.0226 s⁻¹.

B3: cACI-7067-1101C8-Ab2 (antibody, V domains shown)
VH: EVQLVESGGGLVQPKGSLKLSCAASGFSFNIYAMNWVRQAPGKGLEWVARIRSKSNNYATYYADSVKDRFTISRADSESMLYLQMNNLKTEDTAMYYCVRVGLRFYAMDYWGQGTSVTVSS
VL: DVLMTQTPLSLPVSLGDQASISCRSSQSIVHSNGNTYLEWYLQKPGQSPKLLIYKVSNRFSGVPDRFSGSGSGTDFTLKISRVEAEDLGVYYCFQGSQGPLTFGAGTKLELK
In general, Kd refers to the concentration at which binding is half-saturated. Read a low Kd as a tighter complex. Regarding B3, the Kd in experiment [3] was 0.0545 µM. The Relative koff in experiment [4] and in experiment [5] was 1 each time.

These data come from patent US20220298231A1.
